In experiment [1] the target is T1, human GPRC5D (human, UniProt Q9NZD1 1-345). Description: cell-based or functional assay.
Experiment [2] concerns the target T1, human GPRC5D. The experiment can be described thus: cell-based or functional assay. The source holds these as a separate data set.
The target in experiment [3] is T1, human GPRC5D. Description: flow cytometry on NCI-H929 cells; paragraph 550 says these values were falsely calculated by a factor of 10 (too low). The protocol:
(§1) To measure the binding to GPRC5D, we performed a flow cytometry-based binding assay on reported multiple myeloma cell lines (Lombardi et al., Molecular characterization of human multiple myeloma cell lines by integrative genomics: insights into the biology of the disease; Genes Chromosomes Cancer. 2007 March; 46(3):226-38). The cell line NCI-H929 (ATCC® CRL-9068) was cultured in RPMI 1640 with Glutamax medium (Gibco) supplemented with 10% FBS, 1× Penicillin/Streptomycin (Gibco), 1× Sodium Pyruvate (Gibco) and 50 μM beta-Mercaptoethanol (Gibco). Jurkat-NFAT reporter cells (a CD3-expressing human acute lymphatic leukemia reporter cell line with a NFAT promoter, GloResponse Jurkat NFAT-RE-luc2P, Promega #CS176501) were cultured in RPMI 1640, containing 2 g/l Glucose, 2 g/l NaHCO₃, 10% FCS, 25 mM HEPES, 2 mM L-Glutamine, 1×NEAA, 1× Sodium-pyruvate and 200 μg/ml Hygromycin B.
(§2) Flow cytometry acquisition was performed on a custom-designed BD Biosciences Fortessa and analyzed using BD Diva. EC50 values were calculated, using GraphPad Prism software.

For another experiment, the target named is T2, human CD3 (human, UniProt P07766 23-207).
T2 construct: Expressed on Jurkat-NFAT reporter cells as part of the TCR/CD3 complex; also called hCD3; CD3 epsilon
T2 sequence (P07766 23-207 limits assumed): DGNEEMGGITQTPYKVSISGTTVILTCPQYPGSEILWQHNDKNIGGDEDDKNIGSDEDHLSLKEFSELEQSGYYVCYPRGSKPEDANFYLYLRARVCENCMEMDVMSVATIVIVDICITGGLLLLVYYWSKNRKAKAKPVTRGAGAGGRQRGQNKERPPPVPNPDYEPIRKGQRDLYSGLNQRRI
The experiment can be described thus: flow cytometry on Jurkat-NFAT cells; paragraph 550 says these values were falsely calculated by a factor of 10 (too low). The protocol:
as §1, §2

Experiment [4] has as its target T1, human GPRC5D. The experiment can be described thus: cell-based or functional assay. The source holds these as a separate data set.
The target of experiment [5] is T1, human GPRC5D. The experiment can be described thus: cell-based or functional assay. This is another data set of the same source.
In experiment [6] the target is T1, human GPRC5D. Description: cell-based or functional assay. This is another data set of the same source.

Positions count from the first letter of the chain named.

The values that follow come from US20220259318A1 (Hoffmann-La Roche, published 2022).

T1 sequence (Q9NZD1 whole entry): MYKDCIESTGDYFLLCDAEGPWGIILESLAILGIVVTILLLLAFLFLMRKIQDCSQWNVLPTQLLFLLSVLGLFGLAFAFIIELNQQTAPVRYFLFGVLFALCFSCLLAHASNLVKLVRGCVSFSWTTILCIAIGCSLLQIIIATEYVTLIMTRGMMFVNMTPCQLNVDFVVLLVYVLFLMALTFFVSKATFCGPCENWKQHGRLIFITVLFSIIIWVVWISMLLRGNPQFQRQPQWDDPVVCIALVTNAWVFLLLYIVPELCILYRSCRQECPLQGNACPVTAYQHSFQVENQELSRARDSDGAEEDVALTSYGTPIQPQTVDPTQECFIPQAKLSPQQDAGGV

B1: 5E11-TCB (bispecific antibody, human IgG1, kappa, L234A L235A)
light 1: DIVLTQSPALAVSPGQRATISCRASQSVSISGINLMNWYQQKPGQQPKLLIYHASILASGIPTRFSGSGSGTDFTLTIDPVQADDIATYYCQQTRESPLTFGSGTNLEIKRTVAAPSVFIFPPSDRKLKSGTASVVCLLNNFYPREAKVQWKVDNALQSGNSQESVTEQDSKDSTYSLSSTLTLSKADYEKHKVYACEVTHQGLSSPVTKSFNRGEC
light 2: EVQLLESGGGLVQPGGSLRLSCAASGFTFSTYAMNWVRQAPGKGLEWVSRIRSKYNNYATYYADSVKGRFTISRDDSKNTLYLQMNSLRAEDTAVYYCVRHGNFGNSYVSWFAYWGQGTLVTVSSASVAAPSVFIFPPSDEQLKSGTASVVCLLNNFYPREAKVQWKVDNALQSGNSQESVTEQDSKDSTYSLSSTLTLSKADYEKHKVYACEVTHQGLSSPVTKSFNRGEC
heavy 1: ELQLEQSGGGLVQPGGSLTLSCAASGFTFSKYAMAWVRQAPTKGLEWVASISTGGVNTYYRDSVKARFTISRDNAKNTQYLQMDSLRSEDTATYYCATHTGDYFDYWGQGVMVTVSSASTKGPSVFPLAPSSKSTSGGTAALGCLVEDYFPEPVTVSWNSGALTSGVHTFPAVLQSSGLYSLSSVVTVPSSSLGTQTYICNVNHKPSNTKVDEKVEPKSCDKTHTCPPCPAPEAAGGPSVFLFPPKPKDTLMISRTPEVTCVVVDVSHEDPEVKFNWYVDGVEVHNAKTKPREEQYNSTYRVVSVLTVLHQDWLNGKEYKCKVSNKALGAPIEKTISKAKGQPREPQVCTLPPSRDELTKNQVSLSCAVKGFYPSDIAVEWESNGQPENNYKTTPPVLDSDGSFFLVSKLTVDKSRWQQGNVFSCSVMHEALHNHYTQKSLSLSPGK
heavy 2: not shown
notes: 2+1 anti-GPRC5D/anti-CD3 T cell bispecific: LC1 (GPRC5D), LC2 (CD3 crossed VH-CL), HC hole, HC knob; also called 5E11p-CH2527
As usually defined, the EC50 is the concentration at which the effect is half-maximal. In the case of B1, in the experiment with human GPRC5D [1], the “EC50 of anti-GPRC5D-TCB mediated killing, AMO-1” value amounted to 0.014 nM; the “EC50 of anti-GPRC5D-TCB mediated killing, L363” value was determined as 0.012 nM; the “EC50 of anti-GPRC5D-TCB mediated killing, NCI-H929” value was found to be 0.007 nM; the “EC50 of anti-GPRC5D-TCB mediated killing, RPMI-8226” value is 0.024 nM. In addition, in the experiment with human GPRC5D [2], the “EC50 in vitro killing assay, AMO-1” value amounted to 0.008 nM; the “EC50 in vitro killing assay, EJM” value turned out to be 0.011 nM; the “EC50 in vitro killing assay, L363” value amounted to 0.017 nM; the “EC50 in vitro killing assay, MOLP-2” value is 0.018 nM. Moreover, in the experiment with human GPRC5D [2], the “EC50 in vitro killing assay, NCI-H929” value was found to be 0.007 nM; the “EC50 in vitro killing assay, OPM-2” value was found to be 0.002 nM; the “EC50 in vitro killing assay, RPMI” value is 0.064 nM. Also, the concentration giving a half-maximal response (EC50) in the experiment with human GPRC5D [3] is 3.36 nM. Moreover, in the experiment with human CD3, the concentration for a half-maximal effect (EC50) was 3.67 nM. Moreover, in the experiment with human GPRC5D [4], the “AUC, activation of Jurkat-NFAT reporter cells in presence of RPMI-8226 cells” value (shortened to “AUC, activation”) turned out to be 265000 and the “EC50 (pM), activation of Jurkat-NFAT reporter cells in presence of RPMI-8226 cells” value (shortened to “EC50 (pM), activation”) stood at 157 pM.

B2: B72-TCB (bispecific antibody, human IgG1, kappa, L234A L235A)
heavy 1: not shown
light 1: B1 light 2 with L5V, S30N, S49A, D64A, T80S, R89K, A90T, V99A
heavy 2: QVQLVQSGAEVKKPGASVKVSCKASGYSFTGYTMNWVRQAPGQGLEWMGLINPYNSDTNYAQKLQGRVTMTTDTSTSTAYMELRSLRSDDTAVYYCARVALRVALDYWGQGTLVTVSSASTKGPSVFPLAPSSKSTSGGTAALGCLVEDYFPEPVTVSWNSGALTSGVHTFPAVLQSSGLYSLSSVVTVPSSSLGTQTYICNVNHKPSNTKVDEKVEPKSCDKTHTCPPCPAPEAAGGPSVFLFPPKPKDTLMISRTPEVTCVVVDVSHEDPEVKFNWYVDGVEVHNAKTKPREEQYNSTYRVVSVLTVLHQDWLNGKEYKCKVSNKALGAPIEKTISKAKGQPREPQVCTLPPSRDELTKNQVSLSCAVKGFYPSDIAVEWESNGQPENNYKTTPPVLDSDGSFFLVSKLTVDKSRWQQGNVFSCSVMHEALHNHYTQKSLSLSPGK
light 2: DIQMTQSPSSLSASVGDRVTITCKASQNVATHVGWYQQKPGKAPKRLIYSASYRYSGVPSRFSGSGSGTEFTLTISNLQPEDFATYYCQQYNRYPYTFGQGTKLEIKRTVAAPSVFIFPPSDRKLKSGTASVVCLLNNFYPREAKVQWKVDNALQSGNSQESVTEQDSKDSTYSLSSTLTLSKADYEKHKVYACEVTHQGLSSPVTKSFNRGEC
As for B2, in the experiment with human GPRC5D [5], the “AUC, TCB-mediated tumor cell lysis, AMO-1” value stood at 5.45e+07; the “AUC, TCB-mediated tumor cell lysis, IM-9” value is 8.6e+06; the “AUC, TCB-mediated tumor cell lysis, LP-1” value was 1.15e+07; the “AUC, TCB-mediated tumor cell lysis, NCI-H929” value worked out at 1.09e+07. Also, in the experiment with human GPRC5D [6], the “EC50 (pM), TCB-mediated tumor cell lysis, AMO-1” value was 79.9 pM; the “EC50 (pM), TCB-mediated tumor cell lysis, IM-9” value was found to be 198 pM; the “EC50 (pM), TCB-mediated tumor cell lysis, LP-1” value amounted to 49 pM; the “EC50 (pM), TCB-mediated tumor cell lysis, NCI-H929” value is 26.9 pM. Further, in the experiment with human GPRC5D [2], the “EC50 in vitro killing assay, AMO-1” value amounted to 0.109 nM; the “EC50 in vitro killing assay, EJM” value was determined as 0.06 nM; the “EC50 in vitro killing assay, L363” value worked out at 0.058 nM; the “EC50 in vitro killing assay, MOLP-2” value was determined as 0.124 nM. Further, in the experiment with human GPRC5D [2], the “EC50 in vitro killing assay, NCI-H929” value worked out at 0.058 nM; the “EC50 in vitro killing assay, OPM-2” value came to 0.171 nM; the “EC50 in vitro killing assay, RPMI” value worked out at 0.193 nM.

B3: 5F11(VH1b + VL2a)-C122-TCB (P1AE6623) (bispecific antibody, human IgG1, kappa, L234A L235A)
light 1: DIVMTQSPLSLPVTPGEPASISCRSSKSLLHSNGITYVYWYLQKPGQSPQLLIYRMSNRASGVPDRFSGSGSGTDFTLKISRVEAEDVGVYHCGQLLENPYTFGQGTKLEIKRTVAAPSVFIFPPSDRKLKSGTASVVCLLNNFYPREAKVQWKVDNALQSGNSQESVTEQDSKDSTYSLSSTLTLSKADYEKHKVYACEVTHQGLSSPVTKSFNRGEC
light 2: B1 light 2 with T28Q, T31S, G102T, N103T, G105P, N106S, W111Y, F112Y, A113G
heavy 1: EVQLVESGGGVVQPGRSLRLSCAASGFSFSNYGMAWVRQAPGKGLEWVASISTGGGNTYYRDSVKGRFTISRDNAKNTLYLQMNSLRAEDTAVYYCTRHDRGGLYWGQGTMVTVSSASTKGPSVFPLAPSSKSTSGGTAALGCLVEDYFPEPVTVSWNSGALTSGVHTFPAVLQSSGLYSLSSVVTVPSSSLGTQTYICNVNHKPSNTKVDEKVEPKSCDKTHTCPPCPAPEAAGGPSVFLFPPKPKDTLMISRTPEVTCVVVDVSHEDPEVKFNWYVDGVEVHNAKTKPREEQYNSTYRVVSVLTVLHQDWLNGKEYKCKVSNKALGAPIEKTISKAKGQPREPQVCTLPPSRDELTKNQVSLSCAVKGFYPSDIAVEWESNGQPENNYKTTPPVLDSDGSFFLVSKLTVDKSRWQQGNVFSCSVMHEALHNHYTQKSLSLSPGK
heavy 2: not shown
notes: 2+1 TCB: LC1 (anti-GPRC5D), LC2 (anti-CD3 crossed), HC1 Fc hole, HC2 Fc knob
Take B3: the half-maximal effective concentration (EC50) in the experiment with human GPRC5D [3] was 0.36 nM. Moreover, in the experiment with human GPRC5D [4], the “AUC, activation” value is 778000 and the “EC50 (pM), activation” value was found to be 8.9 pM.

B4: 5E11(VH1d + VL2a)-C122-TCB (P1AE6626) (bispecific antibody, human IgG1, kappa, L234A L235A)
light 1: EIVLTQSPGTLSLSPGERATLSCRASQSVSISGINLMNWYQQKPGQQPRLLIYHASILASGIPDRFSGSGSGTDFTLTISRLEPEDFAVYYCQQTRESPLTFGQGTRLEIKRTVAAPSVFIFPPSDRKLKSGTASVVCLLNNFYPREAKVQWKVDNALQSGNSQESVTEQDSKDSTYSLSSTLTLSKADYEKHKVYACEVTHQGLSSPVTKSFNRGEC
light 2: B1 light 2 with T28Q, T31S, G102T, N103T, G105P, N106S, W111Y, F112Y, A113G
heavy 1: ELQLLESGGGLVQPGGSLRLSCAASGFTFSKYAMAWVRQAPGKGLEWVASISTGGVNTYYADSVKGRFTISRDNAKNTLYLQMNSLRAEDTAVYYCATHTGDYFDYWGQGTMVTVSSASTKGPSVFPLAPSSKSTSGGTAALGCLVEDYFPEPVTVSWNSGALTSGVHTFPAVLQSSGLYSLSSVVTVPSSSLGTQTYICNVNHKPSNTKVDEKVEPKSCDKTHTCPPCPAPEAAGGPSVFLFPPKPKDTLMISRTPEVTCVVVDVSHEDPEVKFNWYVDGVEVHNAKTKPREEQYNSTYRVVSVLTVLHQDWLNGKEYKCKVSNKALGAPIEKTISKAKGQPREPQVCTLPPSRDELTKNQVSLSCAVKGFYPSDIAVEWESNGQPENNYKTTPPVLDSDGSFFLVSKLTVDKSRWQQGNVFSCSVMHEALHNHYTQKSLSLSPGK
heavy 2: not shown
notes: as for B3
Consider B4, for which the concentration for a half-maximal effect (EC50) in the experiment with human GPRC5D [3] was 0.85 nM. Also, the EC50 with human CD3 was 7.8 nM. Further, in the experiment with human GPRC5D [4], the “AUC, activation” value amounted to 582000 and the “EC50 (pM), activation” value was 49.7 pM.
